Source: patent publication US20210139610A1, “COMPOSITIONS AND METHODS FOR MEDIATING EPS” (priority 2018, published 2021)
Entries after “also recorded” stand apart in the source; their conditions may differ.

Key:
genomic DNA = assay: Spermidine sensitivity of nucleases on genomic DNA; assay type: biochemical; conditions: Spermidine titrated from 10 μM-10 mM
UPEC biofilms = assay: UPEC in vitro biofilm prevention (at seeding) / disruption (at 24 h); assay type: cell-based, uropathogenic Escherichia coli (UPEC)
Description: FIG. 6: Mature biofilms are resistant to disruption by DNase. DNase (Pulmozyme; 5 units) was added at seeding (prevention) or at 24 h (disruption) to the respective in vitro preformed NTHI and UPEC biofilms. After a total of 40 h, biofilms were stained with LIVE/DEAD®, visualized via CLSM and analyzed by COMSTAT. Bars represent the SEM. Statistical significance compared to control was assessed by unpaired t-tests, *P<0.05; **P<0.01.
FIGS. 35A-35D: DNABII proteins and polyamines (PAs) interact synergistically to induce DNase resistance. […] Biofilms were stained, fixed, visualized via CLSM, and analyzed by COMSTAT. […] Statistical significance compared to Control (No DNase) was assessed by unpaired t-tests, **P<0.01.
FIG. 49: Z-DNA stabilization stimulates biofilm formation. […] Biofilms were stained, fixed, visualized via CLSM, and analyzed by COMSTAT. […] Statistical significance compared to Control (no antibodies) was assessed by paired t-tests, *P<0.05, **P<0.01.
Applicants evaluated the antibiofilm effect of Pulmozyme®, a recombinant human DNase that is used in conjunction with standard therapies for the management of cystic fibrosis (CF) patients to improve pulmonary function. […] The resultant biofilms were stained with LIVE/DEAD® and evaluated using CLSM and COMSTAT analysis.

[1] = test system: Biofilms formed for 24 h by the indicated bacteria (Kp=K. pneumoniae); assay: B-DNA / Z-DNA abundance after DNase in 24 h biofilms of the indicated bacteria (ImageJ fluorescence ratio); assay type: cell-based; conditions: Pulmozyme 40 U/ml for 16 h
Description: FIGS. 48A-48B: Z-DNA in biofilms forms a nuclease-resistant scaffold. (FIG. 48A) Biofilms formed for 24 h by the indicated bacteria (Kp=K. pneumoniae) were incubated with DNase (Pulmozyme®; 40 U/ml) for an additional 16 h. Biofilms were then probed with anti-B-DNA (dark gray) and anti-Z-DNA (white) antibodies and counterstained with the bacterial cell membrane stain FM4-64™ (not shown). (FIG. 48B) Changes in abundance of B-DNA or Z-DNA were quantified using ImageJ by calculation of the ratio of fluorescence intensity of B-DNA or Z-DNA after DNase addition divided by the fluorescence intensity in the absence of DNase (Control). Fluorescence intensity was normalized to the fluorescence signal of FM4-64™-stained cells. Bars represent the SEM. Statistical significance compared to Control (no DNase, dotted line) was assessed by paired t-tests, *P<0.05; ****P<0.0001.

[2] = test system: Non-typeable Haemophilus influenzae biofilms; assay: NTHI in vitro biofilm formation, additive present from seeding (LIVE/DEAD, CLSM, COMSTAT); assay type: cell-based; conditions: DNase (Pulmozyme) added at seeding
Description: FIG. 14: Non-typeable Haemophilus influenzae biofilms were grown for 40 h in supplemented BHI medium containing additives as indicated below each bar in 8 well chambered coverglass slides at 37° C. and 5% CO2. Biofilms were washed, stained with LIVE/DEAD®, fixed, and imaged by CLSM. Biofilm parameters were quantified using COMSTAT software.
Dicyclohexylamine inhibits spermidine synthase via a competitive inhibition mechanism, i.e. through binding to the same site on the protein as the putrescine substrate. Applicants therefore hypothesized that dicyclohexylamine would inhibit NTHi biofilm development. […]

preformed NTHI biofilms = assay: Disruption of pre-formed NTHI biofilms (treatment after initial growth; LIVE/DEAD, CLSM, COMSTAT); assay type: cell-based, Non-typeable Haemophilus influenzae; conditions: DNase (Pulmozyme) added at 24 h
Description: (FIG. 18A) Biofilm growth was initiated then maintained for 24 hrs then treated for 16 hrs with 0 (SBHI Control), 0.1%, 1%, and 5% (w/v) of Phoshocellulose (P11). (FIG. 18B) Biofilm growth was initiated then maintained for 40 hrs in the presence of 0 (sBHI Control), 0.1%, 1%, and 5% (w/v) of (P11). Biofilms were washed with saline and stained with LIVE/DEAD® stain. Images were analyzed by COMSTAT to calculate average thickness and biomass. All images were captured with a 63× objective.
21:65-7. Pulmozyme® was added either at seeding (biofilm prevention) or to pre-formed biofilms (biofilm disruption) (FIG. 6). The resultant biofilms were stained with LIVE/DEAD® and evaluated using CLSM and COMSTAT analysis.
To determine anti-biofilm activity of cation exchange resins on preformed biofilms (i.e. ability to disrupt an extant biofilm), NTHI growth was initiated and maintained for 24 hrs, then treated for 16 hrs with 0 (sBHI Control), 0.1, 1, or 5% (w/v) of P11 phosphocellulose (FIG. 18A). To determine the anti-biofilm activity of cation exchange resins to prevent biofilm formation, NTHI growth was initiated and maintained in the presence of 0 (sBHI Control), 0.1, 1, and 5% w/v of P11 phosphocellulose (FIG. 18B) or 5% (w/v) heparin sepharose (FIG. 19). Biofilms were washed with saline and stained with LIVE/DEAD®, visualized with confocal scanning microscopy (CSLM) and analyzed by COMSTAT to determine average thickness and biomass.

B1: DNase: Pulmozyme, a recombinant human DNase used for management of cystic fibrosis patients (protein, UniProt P24855 23-282, looked up)
Deoxyribonuclease-1: LKIAAFNIQTFGETKMSNATLVSYIVQILSRYDIALVQEVRDSHLTAVGKLLDNLNQDAPDTYHYVVSEPLGRNSYKERYLFVYRPDQVSAVDSYYYDDGCEPCGNDTFNREPAIVRFFSRFTEVREFAIVPLHAAPGDAVAEIDALYDVYLDVQEKWGLEDVMLMGDFNAGCSYVRPSQWSSIRLWTSPTFQWLIPDSADTTATPTHCAYDRIVVAGMLLRGAVVPDSALPFNFQAAYGLSDQLAQAISDHYPVEVMLK
- Spd inhibition: spermidine concentration where nuclease was reduced to <10% activity on genomic DNA (genomic DNA): 300 µM
- UPEC mature biofilm disruption (UPEC biofilms; DNase (Pulmozyme) added at 24 h): unable to disrupt mature biofilms; also recorded: not disrupt extant biofilms
- UPEC biofilm prevention (average thickness, biomass) (UPEC biofilms; DNase (Pulmozyme) added at seeding): significant reduction in average thickness and biomass of NTHI and UPEC biofilms; also recorded: can prevent
- B-DNA abundance after DNase [1]: B-DNA is degraded
- Z-DNA abundance after DNase [1]: Z-DNA is resistant
- NTHI biofilm prevention (average thickness, biomass) [2]: significant reduction in average thickness and biomass of NTHI and UPEC biofilms; also recorded: can prevent formation of
- NTHI mature biofilm disruption (preformed NTHI biofilms): unable to disrupt mature biofilms; also recorded: not disrupt extant biofilms
